Key:
HeLa Kyoto [1] = assay: solubility in G1/S (NP-40 vs SDS abundance) (log2 ratio); higher = more soluble; details: cell cycle stage: G1/S
HeLa Kyoto [2] = assay: solubility change mitosis vs G1/S (difference of NP-40 vs SDS log2 ratios) (log2 ratio difference); higher = more soluble in mitosis
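Wherever solubility change mitosis vs G1/S (difference of NP-40 vs SDS log2 ratios) is given: synchronized HeLa Kyoto cells (double thymidine block for G1/S, nocodazole release for mitosis), protein amounts in NP-40 versus SDS lysates quantified by mass spectrometry, three biological replicates.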
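Wherever solubility in G1/S (NP-40 vs SDS abundance) is given: HeLa Kyoto cells arrested at G1/S by double thymidine block, proteins quantified by TMT10plex mass spectrometry in mild NP-40 versus SDS extracts, three biological replicates.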

Substance | solubility in G1/S (log2) (HeLa Kyoto [1]) | solubility change mitosis (log2) (HeLa Kyoto [2])
METPPVNTIGEKDTSQPQQEWEKNLRENLDSVIQIRQQPRDPPTETLELEVSPDPASQILEHTQGAEKLVAELEGDSHKSHGSTSQMPEALQASDLWYCPDGSFVKKIVIRGHGLDKPKLGSCCRVLALGFPFGSGPPEGWTELTMGVGPWREETWGELIEKCLESMCQGEEAELQLPGHSGPPVRLTLASFTQGRDSWELETSEKEALAREERARGTELFRAGNPEGAARCYGRALRLLLTLPPPGPPERTVLHANLAACQLLLGQPQLAAQSCDRVLEREPGHLKALYRRGVAQAALGNLEKATADLKKVLAIDPKNRAAQEELGKVVIQGKNQDAGLAQGLRKMFG [FKBPL] | 0.618 | 0.144
MDFSFSFMQGIMGNTIQQPPQLIDSANIRQEDAFDNNSDIAEDGGQTPYEATLQQGFQYPATTEDLPPLTNGYPSSISVYETQTKYQSYNQYPNGSANGFGAVRNFSPTDYYHSEIPNTRPHEILEKPSPPQPPPPPSVPQTVIPKKTGSPEIKLKITKTIQNGRELFESSLCGDLLNEVQASEHTKSKHESRKEKRKKSNKHDSSRSEERKSHKIPKLEPEEQNRPNERVDTVSEKPREEPVLKEEAPVQPILSSVPTTEVSTGVKFQVGDLVWSKVGTYPWWPCMVSSDPQLEVHTKINTRGAREYHVQFFSNQPERAWVHEKRVREYKGHKQYEELLAEATKQASNHSEKQKIRKPRPQRERAQWDIGIAHAEKALKMTREERIEQYTFIYIDKQPEEALSQAKKSVASKTEVKKTRRPRSVLNTQPEQTNAGEVASSLSSTEIRRHSQRRHTSAEEEEPPPVKIAWKTAAARKSLPASITMHKGSLDLQKCNMSPVVKIEQVFALQNATGDGKFIDQFVYSTKGIGNKTEISVRGQDRLIISTPNQRNEKPTQSVSSPEATSGSTGSVEKKQQRRSIRTRSESEKSTEVVPKKKIKKEQVETVPQATVKTGLQKGASEISDSCKPLKKRSRASTDVEMTSSAYRDTSDSDSRGLSDLQVGFGKQVDSPSATADADVSDVQSMDSSLSRRGTGMSKKDTVCQICESSGDSLIPCEGECCKHFHLECLGLASLPDSKFICMECKTGQHPCFSCKVSGKDVKRCSVGACGKFYHEACVRKFPTAIFESKGFRCPQHCCSACSMEKDIHKASKGRMMRCLRCPVAYHSGDACIAAGSMLVSSYILICSNHSKRSSNSSAVNVGFCFVCARGLIVQDHSDPMFSSYAYKSHYLLNESNRAELMKLPMIPSSSASKKKCEKGGRLLCCESCPASFHPECLSIEMPEGCWNCNDCKAGKKLHYKQIVWVKLGNYRWWPAEICNPRSVPLNIQGLKHDLGDFPVFFFGSHDYYWVHQGRVFPYVEGDKSFAEGQTSINKTFKKALEEAAKRFQELKAQRESKEALEIEKNSRKPPPYKHIKANKVIGKVQIQVADLSEIPRCNCKPADENPCGLESECLNRMLQYECHPQVCPAGDRCQNQCFTKRLYPDAEIIKTERRGWGLRTKRSIKKGEFVNEYVGELIDEEECRLRIKRAHENSVTNFYMLTVTKDRIIDAGPKGNYSRFMNHSCNPNCETQKWTVNGDVRVGLFALCDIPAGMELTFNYNLDCLGNGRTECHCGADNCSGFLGVRPKSACASTNEEKAKNAKLKQKRRKIKTEPKQMHEDYCFQCGDGGELVMCDKKDCPKAYHLLCLNLTQPPYGKWECPWHQCDECSSAAVSFCEFCPHSFCKDHEKGALVPSALEGRLCCSEHDPMAPVSPEYWSKIKCKWESQDHGEEVKE [WHSC1L1] | -0.563 | 0.362
MAPGEVTITVRLIRSFEHRNFKPVVYHGVNLDQTVKEFIVFLKQDIPLRTNLPPPFRNYKYDALKIIHQAHKSKTNELVLSLEDDERLLLKEDSTLKAAGIASETEIAFFCEEDYKNYKANPISSW [C2ORF76] | -0.239 | 0.0795
DNAJB5 | 0.153 | 0.00156
MEEEQDLPEQPVKKAKMQESGEQTISQVSNPDVSDQKPETSSLASNLPMSEEIMTCTDYIPRSSNDYTSQMYSAKPYAHILSVPVSETAYPGQTQYQTLQQTQPYAVYPQATQTYGLPPFGALWPGMKPESGLIQTPSPSQHSVLTCTTGLTTSQPSPAHYSYPIQASSTNASLISTSSTIANIPAAAVASISNQDYPTYTILGQNQYQACYPSSSFGVTGQTNSDAESTTLAATTYQSEKPSVMAPAPAAQRLSSGDPSTSPSLSQTTPSKDTDDQSRKNMTSKNRGKRKADATSSQDSELERVFLWDLDETIIIFHSLLTGSYAQKYGKDPTVVIGSGLTMEEMIFEVADTHLFFNDLEECDQVHVEDVASDDNGQDLSNYSFSTDGFSGSGGSGSHGSSVGVQGGVDWMRKLAFRYRKVREIYDKHKSNVGGLLSPQRKEALQRLRAEIEVLTDSWLGTALKSLLLIQSRKNCVNVLITTTQLVPALAKVLLYGLGEIFPIENIYSATKIGKESCFERIVSRFGKKVTYVVIGDGRDEEIAAKQHNMPFWRITNHGDLVSLHQALELDFL [EYA3] | -0.0392 | -0.0147
CHD6 | -0.23 | -0.0389
MARGGDTGCTGPSETSASGAAAIALPGLEGPATDAQCQTLPLTVLKSRSPSPRSLPPALSCPPPQPAMLEHLSSLPTQMDYKGQKLAEQMFQGIILFSAIVGFIYGYVAEQFGWTVYIVMAGFAFSCLLTLPPWPIYRRHPLKWLPVQESSTDDKKPGERKIKRHAKNN [SPCS1] | -0.248 | -0.00723
MSEARGEPGSGPEAGARFFCTAGRGLEPFVMREVRARLAATQVEYISGKVFFTTCSDLNMLKKLKSAERLFLLIKKQFPLIISSVSKGKIFNEMQRLINEDPGSWLNAISIWKNLLELDAKKEKLSQRDDNQLKRKVGENEIIAKKLKIEQMQKIEENRDCQLEKQIKEETLEQRDFTTKSEKFQEEEFQNDIEKAIDTHNQNDLTFRVSCRCSGTIGKAFTAQEVGKVIGIAIMKHFGWKADLRNPQLEIFIHLNDIYSVVGIPVFRVSLASRAYIKTAGLRSTIAWAMASLADIKAGAFVLDPMCGLGTILLEAAKEWPDVYYVGADVSDSQLLGTWDNLKAAGLEDKIELLKISVIELPLPSESVDIIISDIPFGKKFKLGKDIKSILQEMERVLHVGGTIVLLLSEDHHRRLTDCKESNIPFNSKDSHTDEPGIKKCLNPEEKTGAFKTASTSFEASNHKFLDRMSPFGSLVPVECYKVSLGKTDAFICKYKKSHSSGL [THUMPD2] | 0.0337 | -0.134
METSSMLSSLNDECKSDNYIEPHYKEWYRVAIDILIEHGLEAYQEFLVQERVSDFLAEEEINYILKNVQKVAQSTAHGTDDSCDDTLSSGTYWPVESDVEAPNLDLGWPYVMPGLLGGTHIDLLFHPPRAHLLTIKETIRKMIKEARKVIALVMDIFTDVDIFKEIVEASTRGVSVYILLDESNFNHFLNMTEKQGCSVQRLRNIRVRTVKGQDYLSKTGAKFHGKMEQKFLLVDCQKVMYGSYSYMWSFEKAHLSMVQIITGQLVESFDEEFRTLYARSCVPSSFAQEESARVKHGKALWENGTYQHSVSSLASVSSQRNLFGRQDKIHKLDSSYFKNRGIYTLNEHDKYNIRSHGYKPHFVPNFNGPNAIRQFQPNQINENWKRHSYAGEQPETVPYLLLNRALNRTNNPPGNWKKPSDSLSVASSSREGYVSHHNTPAQSFANRLAQRKTTNLADRNSNVRRSFNGTDNHIRFLQQRMPTLEHTTKSFLRNWRIESYLNDHSEATPDSNGSALGDRFEGYDNPENLKANALYTHSRLRSSLVFKPTLPEQKEVNSCTTGSSNSTIIGSQGSETPKEVPDTPTNVQHLTDKPLPESIPKLPLQSEAPKMHTLQVPENHSVALNQTTNGHTESNNYIYKTLGVNKQTENLKNQQTENLLKRRSFPLFDNSKANLDPGNSKHYVYSTLTRNRVRQPEKPKEDLLKSSKSMHNVTHNLEEDEEEVTKRNSPSGTTTKSVSIAALLDVNKEESNKELASKKEVKGSPSFLKKGSQKLRSLLSLTPDKKENLSKNKAPAFYRLCSSSDTLVSEGEENQKPKKSDTKVDSSPRRKHSSSSNSQGSIHKSKEDVTVSPSQEINAPPDENKRTPSPGPVESKFLERAGDASAPRFNTEQIQYRDSREINAVVTPERRPTSSPRPTSSELLRSHSTDRRVYSRFEPFCKIESSIQPTSNMPNTSINRPEIKSATMGNSYGRSSPLLNYNTGVYRSYQPNENKFRGFMQKFGNFIHKNK [FAM83B] | -1.47 | 0.383
